Measurements: patent EP1870419A2, “Modulators of beta-amyloid peptide aggregation comprising D-amino acids” (Praecis Pharmaceuticals Incorporated, priority 1999, dated 2000)

Biological target: Aβ1-40 peptide (natural β-amyloid peptide, β-AP1-40)
Assay: cell-based or functional assay

Aβ1-40 peptide (natural β-amyloid peptide, β-AP1-40), sequence (peptide, as listed by the source limits assumed, form in doubt): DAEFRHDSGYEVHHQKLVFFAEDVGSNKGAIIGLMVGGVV

PPI 1013: TFA·H-(Glvffl)-NH2 (peptide) was tested, and the Nucleation assay Δlag, 0.6 µM compound (note #) (fold of control lag time) was 2, the Nucleation assay Δlag, 1.25 µM compound (note #) (fold of control lag time) was > 3 and the Nucleation assay Δlag, 2.5 µM compound (note #) (fold of control lag time) was 2.

For “PPI 1320: TFA·H-(lf-[F5]f-vl)-NH2 (peptide)”, the Nucleation assay data (Δlag), 0.3 µM compound (fold of control lag time) was 1, the Nucleation assay data (Δlag), 1 µM compound (fold of control lag time) was 3 and the Nucleation assay data (Δlag), 3 µM compound (fold of control lag time) was > 5.

“PPI 1007: TFA·N,N-dimethyl-(lvffl)-NH2 (peptide)” gave a Nucleation assay Δlag, 0.3 µM compound (note *) (fold of control lag time) of 3, a Nucleation assay Δlag, 0.6 µM compound (note #) (fold of control lag time) of 1.5 and a Nucleation assay Δlag, 1 µM compound (note *) (fold of control lag time) of 4. The Nucleation assay Δlag, 1.25 µM compound (note #) (fold of control lag time) was 1.5, the Nucleation assay Δlag, 2.5 µM compound (note #) (fold of control lag time) was 1.5 and the Nucleation assay Δlag, 3 µM compound (note *) (fold of control lag time) was 4.

For “PPI 1125: 2 TFA·H-lvf-NH-NH-fvl-H (peptide)”, the Nucleation assay data (Δlag), 0.6 µM compound (note *) (fold of control lag time) was 2, the Nucleation assay data (Δlag), 1.25 µM compound (note *) (fold of control lag time) was > 2.5 and the Nucleation assay data (Δlag), 2.5 µM compound (note *) (fold of control lag time) was > 2.5.

With “PPI-1318: TFA·H-(lf-D-Cha-vl)-NH2 (peptide)” the Nucleation assay data (Δlag), 0.3 µM compound (fold of control lag time) was 1, the Nucleation assay data (Δlag), 1 µM compound (fold of control lag time) was 2 and the Nucleation assay data (Δlag), 3 µM compound (fold of control lag time) was > 5.

With “PPI 969: TFA·N-ethyl-(Gaffvl)-NH2 (peptide)” the Nucleation assay Δlag, 1.25 µM compound (fold of control lag time) was 3, the Nucleation assay Δlag, 2.5 µM compound (fold of control lag time) was > 5 and the Nucleation assay Δlag, 5 µM compound (fold of control lag time) was > 5.

For “PPI 992: TFA·H-(lvffa)-isopropylamide (peptide)”, the Nucleation assay Δlag, 1.25 µM compound (fold of control lag time) was 1, the Nucleation assay Δlag, 2.5 µM compound (fold of control lag time) was 1 and the Nucleation assay Δlag, 5 µM compound (fold of control lag time) was 3.

In the case of “PPI-1019: TFA•N-methyl-(lvffl)-NH2 (peptide)”, the Nucleation assay data (Δlag), 0.6 µM compound (note *) (fold of control lag time) is reported as 2, the Nucleation assay data (Δlag), 1.25 µM compound (note *) (fold of control lag time) is reported as > 2.5 and the Nucleation assay data (Δlag), 2.5 µM compound (note *) (fold of control lag time) is reported as > 2.5.
